Measured values reported in patent publication US20230250154A1 (CYTONICS, published 2023).
Like-named read-outs stand apart in the source and are kept apart here.

T1: Cathepsin G (UniProt P08311 21-244)
T1 sequence (looked up): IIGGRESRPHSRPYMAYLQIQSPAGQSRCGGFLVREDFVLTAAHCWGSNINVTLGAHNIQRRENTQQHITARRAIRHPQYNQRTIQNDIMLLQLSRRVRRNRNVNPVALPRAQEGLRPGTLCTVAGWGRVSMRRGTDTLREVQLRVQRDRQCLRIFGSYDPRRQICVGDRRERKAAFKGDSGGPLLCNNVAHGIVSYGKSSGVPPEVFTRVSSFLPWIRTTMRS

T2: MMP7 (UniProt P09237 95-267, limits assumed)
T2 sequence (looked up): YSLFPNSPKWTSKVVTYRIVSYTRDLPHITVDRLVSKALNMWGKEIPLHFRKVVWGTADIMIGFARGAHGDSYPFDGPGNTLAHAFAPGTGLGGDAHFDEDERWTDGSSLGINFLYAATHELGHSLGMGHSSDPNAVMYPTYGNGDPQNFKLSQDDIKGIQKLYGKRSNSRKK

T3: MMP1 (human, UniProt P03956 100-469, limits assumed)
T3 sequence (looked up): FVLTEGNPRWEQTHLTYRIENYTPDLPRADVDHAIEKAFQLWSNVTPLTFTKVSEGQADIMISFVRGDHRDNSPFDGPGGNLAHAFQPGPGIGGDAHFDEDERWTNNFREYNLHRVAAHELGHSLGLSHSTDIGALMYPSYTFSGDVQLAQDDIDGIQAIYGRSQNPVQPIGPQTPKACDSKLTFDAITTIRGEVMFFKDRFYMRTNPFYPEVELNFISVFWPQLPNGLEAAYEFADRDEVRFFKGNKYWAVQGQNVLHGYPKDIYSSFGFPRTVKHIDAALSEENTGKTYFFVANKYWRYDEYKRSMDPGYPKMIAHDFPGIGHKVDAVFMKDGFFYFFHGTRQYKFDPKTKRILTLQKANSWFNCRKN

T4: ADAMTS5 (human, UniProt Q9UNA0 262-622, limits assumed)
T4 sequence (looked up): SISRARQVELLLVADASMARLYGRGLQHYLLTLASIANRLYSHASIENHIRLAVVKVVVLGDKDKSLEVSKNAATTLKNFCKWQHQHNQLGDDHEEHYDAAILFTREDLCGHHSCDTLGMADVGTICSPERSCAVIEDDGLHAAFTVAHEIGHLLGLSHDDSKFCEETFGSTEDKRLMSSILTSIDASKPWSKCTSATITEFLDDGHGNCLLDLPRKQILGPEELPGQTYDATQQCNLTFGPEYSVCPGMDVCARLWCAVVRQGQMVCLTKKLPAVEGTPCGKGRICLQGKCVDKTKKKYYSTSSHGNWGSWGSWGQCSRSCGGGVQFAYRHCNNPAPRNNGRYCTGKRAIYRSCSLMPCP

T5: MMP2 (human, UniProt P08253 110-660, limits assumed)
T5 sequence (looked up): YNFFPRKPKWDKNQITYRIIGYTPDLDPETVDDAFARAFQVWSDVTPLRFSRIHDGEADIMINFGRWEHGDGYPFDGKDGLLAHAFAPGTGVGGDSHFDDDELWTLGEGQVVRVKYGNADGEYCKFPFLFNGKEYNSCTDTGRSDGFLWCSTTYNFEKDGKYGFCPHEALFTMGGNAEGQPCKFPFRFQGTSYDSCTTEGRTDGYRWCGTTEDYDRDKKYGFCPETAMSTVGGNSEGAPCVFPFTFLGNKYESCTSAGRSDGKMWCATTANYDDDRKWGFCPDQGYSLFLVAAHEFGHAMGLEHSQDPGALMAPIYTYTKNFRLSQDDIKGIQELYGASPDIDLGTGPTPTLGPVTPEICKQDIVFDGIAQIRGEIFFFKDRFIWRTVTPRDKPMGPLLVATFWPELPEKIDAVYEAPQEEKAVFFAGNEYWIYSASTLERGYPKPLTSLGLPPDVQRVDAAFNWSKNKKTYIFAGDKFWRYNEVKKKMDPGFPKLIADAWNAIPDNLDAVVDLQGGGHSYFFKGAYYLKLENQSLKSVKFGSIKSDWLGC


Experiments:
Experiment in all cases: cell-based or functional assay
[1] = target: Elastase
[2] = target: T1, Cathepsin G
[3] = target: MMP13 (human, UniProt P45452 104-471, limits assumed)
[4] = target: MMP8 (human, UniProt P22894 101-467, limits assumed)
[5] = target: MMP9 (human, UniProt P14780 107-707, limits assumed)
[6] = target: Elastase; remark: listed apart in the source
[7] = target: MMP3 (human, UniProt P08254 100-477, limits assumed)
[8] = target: T2, MMP7
[9] = target: T3, MMP1
[10] = target: T4, ADAMTS5
[11] = target: T1, Cathepsin G; remark: listed apart in the source
[12] = target: T5, MMP2

MMP9, sequence (P14780 107-707 limits assumed): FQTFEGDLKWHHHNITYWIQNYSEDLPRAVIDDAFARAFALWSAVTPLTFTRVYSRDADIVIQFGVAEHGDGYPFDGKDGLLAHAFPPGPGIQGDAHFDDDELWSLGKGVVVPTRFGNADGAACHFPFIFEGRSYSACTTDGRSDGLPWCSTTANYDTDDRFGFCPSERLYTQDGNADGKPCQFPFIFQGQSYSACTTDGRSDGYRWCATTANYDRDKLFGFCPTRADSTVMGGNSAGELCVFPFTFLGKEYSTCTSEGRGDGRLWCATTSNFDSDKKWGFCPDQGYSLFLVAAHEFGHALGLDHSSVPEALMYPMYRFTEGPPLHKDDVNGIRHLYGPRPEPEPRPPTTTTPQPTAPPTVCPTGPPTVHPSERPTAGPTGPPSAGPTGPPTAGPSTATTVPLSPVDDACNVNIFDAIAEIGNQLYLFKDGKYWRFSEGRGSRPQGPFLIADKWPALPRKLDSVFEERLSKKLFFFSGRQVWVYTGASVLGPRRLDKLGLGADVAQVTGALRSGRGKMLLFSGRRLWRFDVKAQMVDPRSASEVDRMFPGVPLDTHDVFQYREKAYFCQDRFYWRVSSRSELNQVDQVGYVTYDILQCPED
MMP8, sequence (P22894 101-467 limits assumed): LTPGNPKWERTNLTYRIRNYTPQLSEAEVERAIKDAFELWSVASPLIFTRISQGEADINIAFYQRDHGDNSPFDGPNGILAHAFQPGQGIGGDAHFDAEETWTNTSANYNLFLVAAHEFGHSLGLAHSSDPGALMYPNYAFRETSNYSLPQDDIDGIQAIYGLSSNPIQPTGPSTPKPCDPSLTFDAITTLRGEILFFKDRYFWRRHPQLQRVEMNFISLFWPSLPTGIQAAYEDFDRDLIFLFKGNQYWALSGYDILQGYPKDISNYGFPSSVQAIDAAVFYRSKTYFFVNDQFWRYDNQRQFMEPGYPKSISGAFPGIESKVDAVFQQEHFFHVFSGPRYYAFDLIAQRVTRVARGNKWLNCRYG
MMP3, sequence (P08254 100-477 limits assumed): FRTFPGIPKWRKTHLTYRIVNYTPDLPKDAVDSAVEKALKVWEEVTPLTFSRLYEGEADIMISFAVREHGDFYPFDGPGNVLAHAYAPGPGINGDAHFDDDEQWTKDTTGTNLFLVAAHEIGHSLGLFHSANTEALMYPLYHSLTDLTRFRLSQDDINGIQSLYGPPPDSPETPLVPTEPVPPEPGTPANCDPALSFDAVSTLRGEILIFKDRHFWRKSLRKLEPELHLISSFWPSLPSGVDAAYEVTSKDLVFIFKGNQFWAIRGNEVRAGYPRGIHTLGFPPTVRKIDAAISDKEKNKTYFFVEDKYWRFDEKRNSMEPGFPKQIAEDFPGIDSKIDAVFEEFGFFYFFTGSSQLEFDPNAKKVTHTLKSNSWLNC

Protease Inhibition (% of WT) [1]	Protease Inhibition (% of WT) [2]	Protease Inhibition (% of WT) [3]	Protease Inhibition (% of WT) [4]	Protease Inhibition (% of WT) [5]	Protease Inhibition (% of WT) [6]	Protease Inhibition (% of WT) [7]	Protease Inhibition (% of WT) [8]	Protease Inhibition (% of WT) [9]	Protease Inhibition (% of WT) [10]	Protease Inhibition (% of WT) [11]	Protease Inhibition (% of WT) [12]	Binder
75 % of WT	250 % of WT											Variant A2M, bait region SEQ ID NO 124 (other) SVSGKPQYMVLVPSLLHTETTEKGCVLLSYLNETVTVSASLESVRGNRSLFTDLEAENDVLHCVAFAVPKSSSNEEVMFLTVQVKGPTQEFKKRTTVMVKNEDSLVFVQTDKSIYKPGQTVKFRVVSMDENFHPLNELIPLVYIQDPKGNRIAQWQSFQLEGGLKQFSFPLSSEPFQGSYKVVVQKKSGGRTEHPFTVEEFVLPKFEVQVTVPKIITILEEEMNVSVCGLYTYGKPVPGHVTVSICRKYSDASDCHGEDSQAFCEKFSGQLNSHGCFYQQVKTKVFQLKRKEYEMKLHTEAQIQEEGTVVELTGRQSSEITRTITKLSFVKVDSHFRQGIPFFGQVRLVDGKGVPIPNKVIFIRGNEANYYSNATTDEHGLVQFSINTTNVMGTSLTVRVNYKDRSPCYGYQWVSEEHEEAHHTAYLVFSPSKSFVHLEPMSHELPCGHTQTVQAHYILNGGTLLGLKKLSFYYLIMAKGGIVRTGTHGLLVKQEDMKGHFSISIPVKSDIAPVARLLIYAVLPTGDVIGDSAKYDVENCLANKVDLSFSPSQSLPASHAHLRVTAAPQSVCALRAVDQSVLLMKPDAELSASSVYNLLPEKDLTGFPGPLNDQDDEDCINRHNVYINGITYTPVSSTNEKDMYSFLEDMGLKAFTNSKIRKPKMCPQLEQYEMHGPKEEEGLGSSELEGRGSEAIPMSIPTIPENFFGVVEEPHTKLRKYFPETWIWDLVVVNSAGVAEVGVTVPDTITEWKAGAFCLSEDAGLGISSTASLRAFQPFFVELTMPYSVIRGEAFTLKATVLNYLPKCIRVSVQLEASPAFLAVPVEKEQAPHCICANGRQTVSWAVTPKSLGNVNFTVSAEALESQELCGTEVPSVPEHGRKDTVIKPLLVEPEGLEKETTFNSLLCPSGGEVSEELSLKLPPNVVEESARASVSVLGDILGSAMQNTQNLLQMPYGCGEQNMVLFAPNIYVLDYLNETQQLTPEIKSKAIGYLNTGYQRQLNYKHYDGSYSTFGERYGRNQGNTWLTAFVLKTFAQARAYIFIDEAHITQALIWLSQRQKDNGCFRSSGSLLNNAIKGGVEDEVTLSAYITIALLEIPLTVTHPVVRNALFCLESAWKTAQEGDHGSHVYTKALLAYAFALAGNQDKRKEVLKSLNEEAVKKDNSVHWERPQKPKAPVGHFYEPQAPSAEVEMTSYVLLAYLTAQPAPTSEDLTSATNIVKWITKQQNAQGGFSSTQDTVVALHALSKYGAATFTRTGKAAQVTIQSSGTFSSKFQVDNNNRLLLQQVSLPELPGEYSMKVTGEGCVYLQTSLKYNILPEKEEFPFALGVQTLPQTCDEPKAHTSFQISLSVSYTGSRSASNMAIVDVKMVSGFIPLKPTVKMLERSNHVSRTEVSSNHVLIYLDKVSNQTLSLFFTVLQDVPVRDLKPAIVKVYDYYETDEFAIAEYNAPCSKDLGNADYKDDDDKGASHHHHHH
		70 % of WT	29 % of WT	5 % of WT	98 % of WT	101 % of WT	104 % of WT	87 % of WT	85 % of WT	84 % of WT	16 % of WT	Variant A2M, bait region SEQ ID NO 29 (other) SVSGKPQYMVLVPSLLHTETTEKGCVLLSYLNETVTVSASLESVRGNRSLFTDLEAENDVLHCVAFAVPKSSSNEEVMFLTVQVKGPTQEFKKRTTVMVKNEDSLVFVQTDKSIYKPGQTVKFRVVSMDENFHPLNELIPLVYIQDPKGNRIAQWQSFQLEGGLKQFSFPLSSEPFQGSYKVVVQKKSGGRTEHPFTVEEFVLPKFEVQVTVPKIITILEEEMNVSVCGLYTYGKPVPGHVTVSICRKYSDASDCHGEDSQAFCEKFSGQLNSHGCFYQQVKTKVFQLKRKEYEMKLHTEAQIQEEGTVVELTGRQSSEITRTITKLSFVKVDSHFRQGIPFFGQVRLVDGKGVPIPNKVIFIRGNEANYYSNATTDEHGLVQFSINTTNVMGTSLTVRVNYKDRSPCYGYQWVSEEHEEAHHTAYLVFSPSKSFVHLEPMSHELPCGHTQTVQAHYILNGGTLLGLKKLSFYYLIMAKGGIVRTGTHGLLVKQEDMKGHFSISIPVKSDIAPVARLLIYAVLPTGDVIGDSAKYDVENCLANKVDLSFSPSQSLPASHAHLRVTAAPQSVCALRAVDQSVLLMKPDAELSASSVYNLLPEKDLTGFPGPLNDQDDEDCINRHNVYINGITYTPVSSTNEKDMYSFLEDMGLKAFTNSKIRKPKMCPQLEQPEGEGEGPRYLTAIPENFFGVSEDLVVQISELEGRGSVEEPHTKLRKYFPETWIWDLVVVNSAGVAEVGVTVPDTITEWKAGAFCLSEDAGLGISSTASLRAFQPFFVELTMPYSVIRGEAFTLKATVLNYLPKCIRVSVQLEASPAFLAVPVEKEQAPHCICANGRQTVSWAVTPKSLGNVNFTVSAEALESQELCGTEVPSVPEHGRKDTVIKPLLVEPEGLEKETTFNSLLCPSGGEVSEELSLKLPPNVVEESARASVSVLGDILGSAMQNTQNLLQMPYGCGEQNMVLFAPNIYVLDYLNETQQLTPEIKSKAIGYLNTGYQRQLNYKHYDGSYSTFGERYGRNQGNTWLTAFVLKTFAQARAYIFIDEAHITQALIWLSQRQKDNGCFRSSGSLLNNAIKGGVEDEVTLSAYITIALLEIPLTVTHPVVRNALFCLESAWKTAQEGDHGSHVYTKALLAYAFALAGNQDKRKEVLKSLNEEAVKKDNSVHWERPQKPKAPVGHFYEPQAPSAEVEMTSYVLLAYLTAQPAPTSEDLTSATNIVKWITKQQNAQGGFSSTQDTVVALHALSKYGAATFTRTGKAAQVTIQSSGTFSSKFQVDNNNRLLLQQVSLPELPGEYSMKVTGEGCVYLQTSLKYNILPEKEEFPFALGVQTLPQTCDEPKAHTSFQISLSVSYTGSRSASNMAIVDVKMVSGFIPLKPTVKMLERSNHVSRTEVSSNHVLIYLDKVSNQTLSLFFTVLQDVPVRDLKPAIVKVYDYYETDEFAIAEYNAPCSKDLGNADYKDDDDKGASHHHHHH
